# Source: publication PMC4498918
# Key:
# Experiment in all cases: EMSA
# [1] = tested on: δ2 (ParA-like) (Streptococcus pyogenes plasmid pSM19035); details: 1 mM ATP, 10 mM Mg2+; KDapp, cooperative; EMSA: 50 mM Tris-HCl pH 7.5, 50 mM NaCl, 10 mM MgCl2 (buffer B; Fig 7 legend says buffer C), with or without 1 mM ATP or ADP, 15 min at 37°C, 0.1 nM DNA; 4 or …
# [2] = tested on: δ2D211A (Streptococcus pyogenes plasmid pSM19035); details: EMSA: 50 mM Tris-HCl pH 7.5, 50 mM NaCl, 10 mM MgCl2 (buffer B; Fig 7 legend says buffer C), with or without 1 mM ATP or ADP, 15 min at 37°C, 0.1 nM DNA; 4 or …
# [3] = tested on: δ2D60A (Streptococcus pyogenes plasmid pSM19035); details: EMSA: 50 mM Tris-HCl pH 7.5, 50 mM NaCl, 10 mM MgCl2 (buffer B; Fig 7 legend says buffer C), with or without 1 mM ATP or ADP, 15 min at 37°C, 0.1 nM DNA; 4 or …
# [4] = tested on: δ2K242A (Streptococcus pyogenes plasmid pSM19035); details: EMSA: 50 mM Tris-HCl pH 7.5, 50 mM NaCl, 10 mM MgCl2 (buffer B; Fig 7 legend says buffer C), with or without 1 mM ATP or ADP, 15 min at 37°C, 0.1 nM DNA; 4 or …
substance,measurement,setting,value
423-bp HindIII-KpnI parS2 DNA,Kd,[1],140 nM
same,binding signal (fold higher affinity than wt),[2],> 6
same,binding signal (fold higher affinity than wt),[3],2
same,binding signal (fold lower binding than wt),[4],20
